Reference: patent US20260266833A1 (AXOIYA, published 2026)
Like-named read-outs stand apart in the source and are kept apart here. One block for each binder: values may come before it. Non-standard residues stand in square brackets, D forms with d. No end group written: not given here. *: point of attachment. Biotin = O=C1N[C@H]2[C@H](CS[C@H]2CCCCC(=O)*)N1; Arg(Me) = CNC(=N)NCCC[C@H](N)C(=O)O; Ahx = NCCCCCC(=O)O

B2: H3K27me3 peptide (peptide)
peptide: KQLATKAARKSAPATGGVK
modifications: Kme3 (trimethyl-lysine) at the 10th residue (KQLATKAARKme3SAPATGGVK); N-terminus biotin + aminohexanoic acid linker, or FITC at the N-terminus for fluorescence polarization
notes: Synthetic peptide (GenScript); One entry is used for the biotinylated and the FITC-labelled form

Experiments:
[1] = target: B2; assay: ITC, peptide titrated into the chromodomain, 25 C
Experimental: Dissociation constants were determined using the one-site binding model supplied in MicroCal PEAQ-ITC analysis software (version 1.1.0.1262) with the fitted offset control. Data are the average from three independent experiments ±1 SD.

[2] = target: B2; assay: fluorescence polarization, FITC-peptide 0.5 nM
Experimental: (§3) Fluorescence polarization (FP) assays were performed in a 20 μl volume at a constant histone peptide concentration of 0.5 nM. Binding measurements were performed in FP buffer (25 mM HEPES pH 7.5, 150 mM NaCl, 1 mM DTT, 0.01% TritonX-100) by mixing in a 384-well black plate (Corning) 0.5 nM FITC-labeled histone peptides with serial dilutions of wild-type Cbx chromodomains ranging from 200-0.2 μM. For affinity determination of Cbx7.V1 and all Cbx. VDs, chromodomains were serially diluted from 50 μM to 50 nM. Samples were incubated for 30 min at 25° C. prior to data acquisition. […] Dissociation constants were determined using Prismv.9.3 (GraphPad Software Inc) with a one-site total binding model.

[3] = target: Cbx3.wt chromodomain (tags removed) (human, UniProt Q13185 23-81); assay: fluorescence polarization
Cbx3.wt chromodomain (tags removed), sequence (Q13185 23-81 limits assumed): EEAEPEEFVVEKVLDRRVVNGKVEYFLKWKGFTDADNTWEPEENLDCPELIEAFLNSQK
Experimental: as §3
(§4) FP assays was used to measure the affinities of each wild-type Cbx chromodomain (Cbx.wt) and its Cbx. VD version for the H3K9me3 and H3K27me3 peptides (Table 13).

[4] = target: Cbx5.wt chromodomain (tags removed) (human, UniProt P45973 17-78); assay: fluorescence polarization
Cbx5.wt chromodomain (tags removed), sequence (P45973 17-78 limits assumed): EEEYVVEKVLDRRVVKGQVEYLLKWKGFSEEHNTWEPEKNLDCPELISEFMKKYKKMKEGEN
Experimental: as §3, §4

[5] = target: T1, Cbx6.wt chromodomain (tags removed) (human, UniProt O95503 6-69); assay: fluorescence polarization
T1 construct: also called Cbx6-chromo
T1 sequence: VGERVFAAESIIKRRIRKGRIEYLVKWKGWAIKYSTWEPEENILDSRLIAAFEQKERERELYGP
Experimental: as §3, §4

[6] = target: T2, Cbx1.wt chromodomain (tags removed) (human, UniProt P83916 17-79); assay: fluorescence polarization
T2 construct: also called Cbx1-chromo
T2 sequence (P83916 17-79 limits assumed): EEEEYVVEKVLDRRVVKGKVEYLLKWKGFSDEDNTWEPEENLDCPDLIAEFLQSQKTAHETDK
Experimental: as §3, §4

[7] = target: T3, Cbx7.wt chromodomain (tags removed) (human, UniProt O95931 4-75); assay: fluorescence polarization, FITC-peptide 0.5 nM
T3 construct: also called Cbx7-chromo
T3 sequence: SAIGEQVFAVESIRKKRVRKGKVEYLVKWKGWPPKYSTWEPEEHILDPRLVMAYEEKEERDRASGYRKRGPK
Experimental: as §3

[8] = target: T3, Cbx7.wt chromodomain (tags removed); assay: fluorescence polarization, FITC-peptide 0.5 nM; remark: listed apart in the source
Experimental: as §3, §4

[9] = target: T4, Cbx2.wt chromodomain (tags removed) (human, UniProt Q14781 8-70); assay: fluorescence polarization, FITC-peptide 0.5 nM
T4 sequence: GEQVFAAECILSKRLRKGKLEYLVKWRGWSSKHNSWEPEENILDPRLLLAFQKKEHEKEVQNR
Experimental: as §3, §4

[10] = target: B2; assay: fluorescence polarization
Experimental: as §3, §4

[11] = target: T5, H3K27me1 (Kme1 at peptide residue 10 (histone H3 K27); N-terminal biotin and aminohexanoic acid linker); assay: luciferase-fusion assay on immobilized peptide
T5 construct: also called H3K27Me1 peptide
T5 peptide: KQLATKAARKSAPATGGVK
Experimental: (§1) For luciferase-based assays, 384-well white plates (PerkinElmer) were coated for 16 h at 4° C. with 4 μg/ml streptavidin (New England Biolabs, N7021S) in TBS pH 8.5 (50 mM Tris-HCl pH 8.5, 150 mM NaCl). Each well was blocked with 60 μl/well of TBS pH 8.5 containing 0.5% BSA (TB buffer) and incubated at 25° C. for 1 h. Plates were washed four times with 90 μl/well of PBS pH 7.4, 0.05% Tween-20 (PT buffer) and incubated with 25 μl/well of biotinylated histone peptides at 5 μg/ml in TB buffer pH 8.5 for 30 min at 25° C. Plates were washed and incubated with Cbx chromodomain-luciferase fusions diluted to 0.1 nM for Cbx. VD or 100 nM for Cbx.wt in TB buffer, 0.05% Tween-20, 1 mM DTT, 5% glycerol (TBT buffer). Plates were incubated for 1 h at 25° C. with gentle shaking, washed six times and luminescence intensity was measured with a Biotek Synergy 5 plate reader (Biotek) using the ONE-Glo™ EX luciferase assay system reagent (Promega). Following background subtraction of the luminescence signal derived from wells coated with streptavidin, the luminescence intensity was normalized to wells with immobilized H3K9me3 peptide.
(§2) To enhance detection sensitivity, each chromodomain was expressed as a fusion to the N-terminus of an engineered firefly luciferase and binding was measured by luminescence intensity.

[12] = target: T6, H3K27me2 (Kme2 at peptide residue 10 (histone H3 K27); N-terminal biotin and aminohexanoic acid linker); assay: luciferase-fusion assay on immobilized peptide
T6 construct: also called H3K27Me2 peptide
T6 peptide: KQLATKAARKSAPATGGVK
Experimental: as §1, §2

[13] = target: T7, H3R17; assay: luciferase-fusion assay on immobilized peptide
T7 construct: also called H3R17 peptide (non-modified)
T7 peptide: {Biotin-Ahx}-KSTGGKAPRKQLATKAA
Experimental: as §1, §2

[14] = target: T8, H3R17me1; assay: luciferase-fusion assay on immobilized peptide
T8 construct: also called H3R17me1 peptide
T8 peptide: {Biotin-Ahx}-KSTGGKAP[Arg(Me)]KQLATKAA
Experimental: as §1, §2

[15] = target: T9, H3K14; assay: luciferase-fusion assay on immobilized peptide
T9 construct: also called H3K14 peptide (non-modified)
T9 peptide: {Biotin-Ahx}-TARKSTGGKAPRKQLAT
Experimental: as §1, §2

[16] = target: B2; assay: luciferase-fusion assay on immobilized peptide
Experimental: as §1, §2

[17] = target: T10, H3K27 peptide (non-methylated) (also: N-terminal biotin + Ahx, or FITC at N-terminus); assay: luciferase-fusion assay on immobilized peptide
T10 construct: also called unmethylated H3K27 peptide
T10 peptide: KQLATKAARKSAPATGGVK
Experimental: as §1, §2

[18] = target: T11, H3K14Ac; assay: luciferase-fusion assay on immobilized peptide
T11 construct: also called H3K14Ac peptide
T11 peptide: {Biotin-Ahx}-TARKSTGGK(Ac)APRKQLAT
Experimental: as §1, §2

[19] = target: T12, H3K9Ac (Kac at peptide residue 9 (histone H3 K9); N-terminal biotin and aminohexanoic acid linker); assay: luciferase-fusion assay on immobilized peptide
T12 construct: also called H3K9Ac peptide
T12 peptide: ARTKQTARKSTGGKAPR
Experimental: as §1, §2

[20] = target: T13, H3K9me1 (Kme1 at peptide residue 9 (histone H3 K9); N-terminal biotin and aminohexanoic acid linker); assay: luciferase-fusion assay on immobilized peptide
T13 construct: also called H3K9Me1 peptide
T13 peptide: ARTKQTARKSTGGKAPR
Experimental: as §1, §2

[21] = target: T14, H3K9me2 (Kme2 at peptide residue 9 (histone H3 K9); N-terminal biotin and aminohexanoic acid linker); assay: luciferase-fusion assay on immobilized peptide
T14 construct: also called H3K9Me2 peptide
T14 peptide: ARTKQTARKSTGGKAPR
Experimental: as §1, §2

[22] = target: T15, H4K20me3 (Kme3 at peptide residue 8 (histone H4 K20); N-terminal biotin and aminohexanoic acid linker); assay: luciferase-fusion assay on immobilized peptide
T15 construct: also called H4K20Me3 peptide
Experimental: as §1, §2

[23] = target: T16, H3K9 peptide (non-methylated) (also: N-terminal FITC, or biotin + Ahx); assay: luciferase-fusion assay on immobilized peptide
T16 construct: also called unmethylated H3K9 peptide
T16 peptide: ARTKQTARKSTGGKAPR
Experimental: as §1, §2

[24] = target: H4K20 peptide (N-terminus biotin + aminohexanoic acid linker); assay: luciferase-fusion assay on immobilized peptide
Experimental: as §1, §2

binding result [11]: no binding (tested: 0.1 nM)
binding result [12]: no binding (tested: 0.1 nM)
binding result [13]: no binding (tested: 0.1 nM)
binding result [14]: no binding (tested: 0.1 nM)
binding result [15]: no binding (tested: 0.1 nM)
binding result [16]: no binding (tested: 0.1 nM)
binding result [17]: no binding (tested: 0.1 nM)
B4: Cbx6.VD chromodomain-luciferase fusion (designed binder)
chain: MSYYHHHHHHGSDYKDDDDKSSGENLYFQGSGGSVGDRVFAAESIIKRRIRKGRIEYLVKWEGWAIKYSTWEPEENILDSRLIAAFEQKERERELYGP
notes: not shown: engineered YY5 firefly luciferase from Photinus pyralis fused to the C-terminus

binding result [18]: no binding (tested: 100 nM)
binding result [19]: no binding (tested: 100 nM)
binding result [20]: no binding (tested: 100 nM)
binding result [21]: no binding (tested: 100 nM)
binding result [11]: no binding (tested: 100 nM)
binding result [12]: no binding (tested: 100 nM)
binding result [13]: no binding (tested: 100 nM)
binding result [14]: no binding (tested: 100 nM)
binding result [22]: no binding (tested: 100 nM)
binding result [15]: no binding (tested: 100 nM)
binding result [23]: no binding (tested: 100 nM)
binding result [17]: no binding (tested: 100 nM)
binding result [24]: no binding (tested: 100 nM)
B5: Cbx8.wt chromodomain-luciferase fusion (other)
chain: MSYYHHHHHHGSDYKDDDDKSSGENLYFQGSGGSGERVFAAEALLKRRIRKGRMEYLVKWKGWSQKYSTWEPEENILDARLLAAFEEREREMELYGP
notes: as for B4

Continued, binder first:

B1: Cbx7.V1 chromodomain (tags removed) (designed binder)
chain: SAIGDDIFAVESIRKKRVRKGKVEYLVKWEGWPLEYSTWEPEEHILDPRLVMAYEEKEERDRASGYRKRGPK
notes: ITC and FP: His6 and Flag tags removed with TEV protease
Kd [1]: 7.8 µM
Kd [2]: 4 µM

Binder: B2
binding result [3]: no binding
binding result [4]: no binding
binding result [5]: no binding
binding result [6]: no binding
Kd [7]: 110 µM
Kd [8]: 110 µM
Kd [9]: 100 µM

B3: Cbx6.VD chromodomain (tags removed) (designed binder)
chain: VGDRVFAAESIIKRRIRKGRIEYLVKWEGWAIKYSTWEPEENILDSRLIAAFEQKERERELYGP
binding result [10]: no binding
